21 variants from the RNAGym collection of RNA variant scans (doi:10.1073/pnas.2313332121) can be followed below.

First the molecules themselves.
B1: TPR t1 (parent)
chain: GACCAAUCUGCCCUCAGAGCUCGAGAACAUCUUCGGAUGCAGAGGAGGCAGGCUUCGGUGGCGCGAUAGCGCCAACGUCCUCAACCUCCAAUGCAUCCCACCACAUGAUGAUGCCUGAAGAGCCUUGGUUUUUUG

This series covers variants of B1. The series can be described thus: polymerase ribozyme fitness, log enrichment relative to wild type (log ratio); higher = more active; in vitro selection for triplet polymerase activity. In short, it runs like this:
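After PCR construction and transcription, each subunit's mutant library from a heterodimeric triplet polymerase ribozyme was annealed with a biotinylated primer, the partner subunit and triplets. Incubation was frozen, at −7 °C, and extended constructs were gel-excised, bound to streptavidin beads and amplified by RT-PCR, in one selection round done in triplicate. Fitness is the logarithm of a genotype's enrichment divided by that of the wild type, from inverse-variance-weighted replicate averages of Illumina-sequenced inputs and outputs. The base of the logarithm is 2, and genotypes needed ≥10 input reads and ≥1 read per output.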
With GACCAAUCUGCCCUCAGAGCUCGAGAACAUUUUCGGAUGCAGAGGAGGCAGGCUUCGGUGGCGCGAUAGCGCCAACGUCCUCAACCUCCAAUGCAUCCCACCACAUGAUGGUGCCUGAAGAGCCUUGGUUUUUUG [C31U A111G], the “polymerase ribozyme fitness (log ratio)” value was -5.05. Turning to GACCAAUCUGCCCUCAGAGCUCGAGAAAAUCUUCGGAUGCAGAGGAGGCAGGCUUCGGUGGCGCGAUAGCGCUAACGUCCUCAACCUCCAAUGCAUCCCACCACAUGAUGAUGCCUGAAGAGCCUUGGUUUUUUG [C28A C73U], the “polymerase ribozyme fitness (log ratio)” value is -3.04.

For the variant GCCCAAUCUGCCCGCAGAGCUCGAGAACAUCUUCGGCUGCAGAGGAGGGAGGCUUCGGUCGCGCGAUAGCGCCAACGUCCUCAACCUCCAAUGCAACCCACCACAUGAUGUUGCCUGAAGAGCCUUGGUUUUUUG [A2C U14G A37C C49G G60C U96A A111U], the “polymerase ribozyme fitness (log ratio)” value was -6.59. GAUCAAUCUGCCCUCAGAGCUCGAGAACAUCUUCGGAUGCAGAGGAGGCAGGCUUCGGUGGCGCGAUAGCGCCAACGUCCUCAACGUCCAAUGCAUCCCACCACAUGAUGAUGCCUGAAGAGCCUUGGUUUUUUG [C3U C86G]: the “polymerase ribozyme fitness (log ratio)” value is -2.21. On to GACCAAUCUGCCCUCAGAGCUCUAGAACAUCUGCGGAUGCAGAGGAGGGAGGGUUCGGGGGCGCGAUAGCACCAACGACCUCAUCCUCCAAUGGAUCCCUCCACAUGAUGAUGCCUGAAGAGCCUUGGUUUUUUG [G23U U33G C49G C53G U59G G71A U78A A84U C94G A100U], for which the “polymerase ribozyme fitness (log ratio)” value was -8.02.

Take GACCAAUCUGCCCUCAGAGCUCGAGAACAUCUUCGCAUGCAGAGGAGGCAGGCUUCGGUGGCGCGAUAGCGCCAACGUCCUCAACCUCCAAAGCAUCCCACCACAUGAUGAUGCCUGUAGAGCCUUGGUUUUUUG [G36C U92A A118U]: the “polymerase ribozyme fitness (log ratio)” value was -3.89.

Turning to GACCAAUCUGCCCUCAGAGCUCGAGAACAUUUUCGUAUGCAGAGGAGGCAGGCUUCGGUGUCGCGAUAGCGCCAACGUCCUAAACCUCCAAUGCAUCCCACCACAUGAUGUUGCCUGAAGAGCCUUGGUUUUUUG [C31U G36U G61U C82A A111U], the “polymerase ribozyme fitness (log ratio)” value was -5.16. For the variant GACCAAUCUGCGCUCAGAGCUCGAGAACAUCUUCGGAUGCAGAGGAGGCAGGCUUCGGUGGCGCGAUAGCGCCAACGUCCUCAACCUCCAAUGCAUCCCACCACAUGAUUAUGCCUGAAGAGCCUUGGUUUUUUG [C12G G110U], the “polymerase ribozyme fitness (log ratio)” value was -1.12. For the variant GACCAAUCUGCCCUCUUAGCUCGAGAACAUCUUCGGAUGCAGAGGAGGCAGGCUUCGGUGGCGCGAUAGCGCCAACGUCCUCAACCUCCAAUGCAUCCCACCACAUGAUGAUGCCUGAAGAGCAUUGGUUUUUUG [A16U G17U C124A], the “polymerase ribozyme fitness (log ratio)” value is -1.9. Next, GACCAAUCUGCCCUCAGAGCUCGAGAACAUCUUCGGAUGCGGAGGAGGCAGGCUGCGGUGGCGCGAUAGCGCCGACGUCCUCAACCUCCAAUGCAUCCCACCACAUGAUGAUGCCUGAAGAGCCUUGGUUUUUUG [A41G U55G A74G]: 0.0435; GACCAAUCUGCCCUCAGAGCUCGAGAACAUCUUCGGAUGCAGAGGAGGCAGGCUUCGGUGGCGCGAUAGUGCCAACGUCCCCAACCUCCAAUGCAUCCAACCACAUGAUGAAGCCUGAAGAGCCCUGGUUUUUUG [C70U U81C C99A U112A U125C]: -6.54. Next, GACCAAUCUGCCCUCAGAGCUCGAGAACAUCUUCGGAUGCAGAGGAGGCAGGCUUCGGUGGCGCGAUAGCGCCAACGUCCUCAACCUCCAAUGCAUCCCACCACAUGAUGAUGCCUGAAGAUCUUUGGUUUUUUG [G122U C124U]: 0.953; GACCAAUCUGCCCUCAGAGCUCGAGAACAUCUUCGGUUGCAGAGGAGGCAGGCUUUGGUGGCGCGAUAGCGCCAACGUCCUCAACCUCCAAUGCAUCCCACCACAUGAUGAUGCCUGAAGAGCCUUGGUUUUUUG [A37U C56U]: -0.686. Next, GACCUAUCUGCCCUCAGAGCUCGAGAACAUCUUCGGAUGCAGAGGAGGCAGGCUUCGGUGGCGCGAUAGCGCCAACGUCCUCAACCUCCAAUGCAUCCCACCACAUGAUGAUGCCUGAAGAGCCAUGGUUUUGUG [A5U U125A U133G]: -0.817; GACCAAUCUGCCCUCAGAGCUCGAGAACAUCUUCGGAUGCAGAGGAGGCAGGCUUCGGUGGCGCGAUAGCGCCAACGUCGUCAACCUCCAAUGCAUCCCACCACAAGAUGAUGCCUGAAGAACCUUGGUUUUUUG [C80G U106A G122A]: -6.86; GACCAAUCUGCCCUCAGAGCUCGAGAACAUCUUCGGAUGCAGAGGAAGCAGGCUUCGGUGGCGCGAUAGAGCCAACGUCCUGAACCUCCAAUGCAUCCCACCACAUGAUGAUGCCUGAAGAGCCUUGGUUUUUUG [G47A C70A C82G]: -2.41.

Regarding GACCAAUCUGCCCUCAGAGCUCGAGAACAUCUUCGGAUGCAGAGGAGGCAGGCUGCGGUGGCGCGAUAGCGCCAACGUCCUCAACCUCCCAGGCAUCCCAACACAUGAUGAUGCCUGAAGAGCCUUGGUUUUUUG [U55G A90C U92G C101A], the “polymerase ribozyme fitness (log ratio)” value was -3.67. Next, GACCAAUCUGCCCUCAGAGCUCGAGAACAUCUACGGAUGCAGAGGAGGCAGGCUUCGGUGGCGCGAUAGCGCCAACGUCCUCAUCCUCCAAUGCAUUCCACCACAUGAUGAUGCCUGAAGAGCCUUGGUUUUUUG [U33A A84U C97U]: -4.91. As to GUCCAAUCUGCCCUCAGAGCUCGAGAGCAUCUUCGGAUCCAGAGGAGGCAGGCUUCGGUGCUGCGAUAGCGCCAACGUCCUCAUCCUCCAAUGCAUCCCACCACAUGAUGAUGCCUGAAGAGCCUUGGUUUUUUG [A2U A27G G39C G61C C62U A84U], the “polymerase ribozyme fitness (log ratio)” value was -7.51. Next, GACCAAUCUGCCCUCAGAGCUCGAGAACAUCUUCGGAUGCAGAGGAGGCAGGCUUCGGUGGCGCGAUAGCGCCAACGUCCGCACCCUCCAAUGCAUCCCACCACAUGAUGAUGCCAGAACAGCCUUGGUUUUUUG [U81G A84C U116A G120C]: -3.83; GACCAAUCUGCCCUCAGAGCUCGAGAACAUCUUCGUAUGCAGAGGAGGCAGGCUUCGGUGGCGCGAUAGCGCUAACGUCCUCAACCUCCAAUGCAUCCCACCACAUGAUGAUGCCUGAUGAGCCUUGGUUUUUUG [G36U C73U A119U]: -1.63.
